B2: VapC toxin of Salmonella enterica serovar Typhimurium LT2 (enzyme)
chain: MLKFMLDTNTCIFTIKNKPEHIRERFNLNTSRMCISSITLMELIYGAEKSLAPERNLAVVEGFISRLEVLDYDTQAAIHTGQIRAELARKGTPVGPYDQMIAGHAGSRGLVVVTNNLREFERIPGIRIEDWC

Experiments:
[1] = biological target: T1, VapB;VapC (Salmonella enterica serovar Typhimurium …, UniProt Q7CPV2;Q8ZM86 1-75;1-132, |); experiment: EMSA
T1 sequence 1: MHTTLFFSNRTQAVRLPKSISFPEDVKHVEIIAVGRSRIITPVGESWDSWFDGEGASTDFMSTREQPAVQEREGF
T1 sequence 2: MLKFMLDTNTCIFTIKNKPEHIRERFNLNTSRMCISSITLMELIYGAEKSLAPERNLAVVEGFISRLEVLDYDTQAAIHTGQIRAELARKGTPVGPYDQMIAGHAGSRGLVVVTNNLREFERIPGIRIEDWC

[2] = biological target: the molecule itself
[3] = biological target: T2, VapC Y72A variant (Salmonella enterica serovar Typhimurium …, UniProt Q8ZM86 1-132, Y72A); experiment: native gel or EMSA
T2 sequence: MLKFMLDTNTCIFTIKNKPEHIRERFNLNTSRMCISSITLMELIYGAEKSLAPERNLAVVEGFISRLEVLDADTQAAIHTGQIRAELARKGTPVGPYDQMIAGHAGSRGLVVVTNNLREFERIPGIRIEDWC

[4] = biological target: T3, VapC A76S variant (Salmonella enterica serovar Typhimurium …, UniProt Q8ZM86 1-132, A76S); experiment: native gel or EMSA
T3 sequence: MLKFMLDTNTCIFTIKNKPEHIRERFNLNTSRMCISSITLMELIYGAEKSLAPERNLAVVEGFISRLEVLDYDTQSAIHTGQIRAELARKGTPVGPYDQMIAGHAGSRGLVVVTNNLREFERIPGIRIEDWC

[5] = biological target: T4, VapC L43A variant (Salmonella enterica serovar Typhimurium …, UniProt Q8ZM86 1-132, L43A); experiment: native gel or EMSA
T4 sequence: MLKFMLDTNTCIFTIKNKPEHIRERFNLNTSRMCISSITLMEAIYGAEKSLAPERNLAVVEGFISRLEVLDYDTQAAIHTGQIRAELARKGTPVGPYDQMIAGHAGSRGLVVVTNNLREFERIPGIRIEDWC

[6] = biological target: B2; experiment: native gel or EMSA
[7] = biological target: T5, VapC I44A variant (Salmonella enterica serovar Typhimurium …, UniProt Q8ZM86 1-132, I44A); experiment: native gel or EMSA
T5 sequence: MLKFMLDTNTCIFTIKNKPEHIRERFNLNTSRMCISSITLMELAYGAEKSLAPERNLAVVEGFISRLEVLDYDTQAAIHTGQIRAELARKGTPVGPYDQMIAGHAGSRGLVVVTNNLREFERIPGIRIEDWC

B1: vapO1, 36 bp (dsDNA)
DNA 1: CTCATAATGGATATACGCGTTGTATATCCAGAAAGG
DNA 2: CCTTTCTGGATATACAACGCGTATATCCATTATGAG
binding result [1]: binds

B2
stoichiometry N [2]: 2

B3: VapB antitoxin of Salmonella enterica serovar Typhimurium LT2 (natural protein, UniProt Q7CPV2 1-75, looked up)
chain: MHTTLFFSNRTQAVRLPKSISFPEDVKHVEIIAVGRSRIITPVGESWDSWFDGEGASTDFMSTREQPAVQEREGF
binding result [3]: binds
binding result [4]: binds
binding result [5]: binds
binding result [6]: binds
binding result [7]: binds
